Reference: FireProtDB (doi:10.1016/0168-1656(93)90129-b)

Details: Escherichia coli (strain K12), CD, reversible: yes, whole UniProt chain shown; for Tm: Thermal; for denaturant midpoint (higher = more stable) / unfolding free energy: 25 °C, GdnHCl

B1: Ribonuclease HI wild type, P0A7Y4 (protein)
chain: MLKQVEIFTDGSCLGNPGPGGYGAILRYRGREKTFSAGYTRTTNNRMELMAAIVALEALKEHCEVILSTDSQYVRQGITQWIHNWKKRGWKTADKKPVKNVDLWQRLDAALGQHQIKWEWVKGHAGHPENERCDELARAAAMNPTLEDTGYQVEV
Tm (pH 3, glycine-HCl 10 mM): 49.4 °C | denaturant midpoint (higher = more stable) (pH 5.5, Sodium acetate 20 mM): 1.79 M | unfolding free energy (pH 5.5, Sodium acetate 20 mM): 9.21 kcal/mol | Tm (pH 5.5, Sodium acetate 20 mM): 52.7 °C | Tm (pH 7.8, Sodium phosphate 20 mM): 50.2 °C | denaturant midpoint (higher = more stable) (pH 8.2, Tris-HCl 20 mM): 1.65 M | unfolding free energy (pH 8.2, Tris-HCl 20 mM): 8.49 kcal/mol
